Patent US20220411487A1 (Regeneron, published 2022)

B1: REGN7999 (antibody, human IgG4 S228P, kappa, V domains shown)
VH: EVQLVESGGGLVQPGGSLRLSCAASGFTFSSYAMTWVRQAPGKGLEWVSAISGSDTSTYYADSVKGRFTISRDNSKNTLFLQMNSLRAEDTAVYYCAKHQDYDFSYYYSAMDVWGQGTTVTVSS
VL: DIQMTQSPSSLSASVGDRVIITCRASQDFNSWLAWYQQKPGKAPKLLIYAASSLQSGVPSRFSGSGSGTDFTLTISSLQPEDFATYYCQQTDSFPFTFGPGTKVDIKR
notes: fully human; human IgG4 Fc with hinge S108P; also called mAb41450
B2: REGN7977 (antibody, V domains shown)
VH: EVQLVESGGGLVKPGGSLRVSCAASGVTFSNVWMSWVRQVPGKGLEWVGRIKSKTDGGTTDYAAPVKGRFTISKDDSKNTLFLQMNSLKTEDTAVYYCTTETGDFWSGYYPRFQHWGQGTLVTVSS
VL: DIQMTQSPSSLSASVGDRVTITCRASQYISTYLNWYQQKPGKAPSLLIYAASSLQSGVPSRFSGSGSGTDFTLTISSLQPEDFASYSCQQSYSTPPYTFGQGTKLEIKR
notes: fully human; human IgG4 Fc with hinge S108P; also called mAb41465
B3: REGN7974 (antibody, human IgG4 S228P, kappa, V domains shown)
VH: EVQLVESGGGLVQPGRSLRLSCIASGFNFGDYGMSWVRQAPGKGLEWVGFIRSKAYGGTTEYAASVKGRFTISRDDSKSIAYLQMNSLKTEDAAMYYCSRDYYDILTGYYGDYWGQGTLVTVSS
VL: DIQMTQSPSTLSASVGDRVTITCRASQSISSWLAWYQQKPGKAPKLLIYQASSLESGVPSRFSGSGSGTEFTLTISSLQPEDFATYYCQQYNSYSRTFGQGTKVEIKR
notes: fully human; human IgG4 Fc with hinge S108P; also called mAb41422
B4: REGN7969 (antibody, human IgG4 S228P, kappa, V domains shown)
VH: QVQLVESGGGVVQPGRSLRLSCAASGFTFNNYGMHWVRQAPGKGLEWVAIISYDGSNEYYSDSVKGRFTISRDNSKNTLYLQMNSLRAEDTAVYYCARDQDYGGNLFHYWGQGTLVTVSS
VL: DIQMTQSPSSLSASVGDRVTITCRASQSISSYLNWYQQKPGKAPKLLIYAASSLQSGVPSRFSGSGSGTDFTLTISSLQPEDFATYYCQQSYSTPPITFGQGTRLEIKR
notes: fully human; human IgG4 Fc with hinge S108P; also called mAb37746
B5: REGN7971 (antibody, human IgG4 S228P, kappa, V domains shown)
VH: QVQLVESGGGVVQPGRSLRLSCAASGFTFSTYGMHWVRQAPGKGLEWVAIISYDGSNDYYLDSVKGRFTISRDNSKNTLYLQMNNLRAEDTAVYYCAKDQGYGGNLFASWGQGTLVTVSS
VL: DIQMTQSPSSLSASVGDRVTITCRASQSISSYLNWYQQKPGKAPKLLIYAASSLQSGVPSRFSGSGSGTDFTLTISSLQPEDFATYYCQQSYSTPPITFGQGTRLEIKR
notes: fully human; human IgG4 Fc with hinge S108P; also called mAb37763
B6: REGN8023 (antibody, human IgG4 S228P, kappa, V domains shown)
VH: EVQLVESGGGLVKPGGSLRISCAASGFIFVDYAMHWVRQAPGKGLEWVSGISWNSGSIGYADSVKGRFTISRDNAKKSLYLQMSGLRPEDTALYYCVKSGFYYVRSYFDNWGQGTLVTVSS
VL: DIVMTQSPLSLPVTPGEPASISCRSSQSLLDSDDGNTYLDWYLRKPGQSPQLLIYTLSYRASGVPDRFSGSGSGTDFTLKISRVEADDVGVYYCMQRIEFPLTFGGGTKVEIKR
notes: fully human; human IgG4 Fc with hinge S108P; also called mAb37699

How the values were obtained:
Assay in all cases: cell-based or functional assay
[1] = target: T1, full length human TMPRSS6 on HEK293 cells (HEK293/hTMPRSS6) (human, UniProt Q8IU80 10-811)
T1 sequence (looked up): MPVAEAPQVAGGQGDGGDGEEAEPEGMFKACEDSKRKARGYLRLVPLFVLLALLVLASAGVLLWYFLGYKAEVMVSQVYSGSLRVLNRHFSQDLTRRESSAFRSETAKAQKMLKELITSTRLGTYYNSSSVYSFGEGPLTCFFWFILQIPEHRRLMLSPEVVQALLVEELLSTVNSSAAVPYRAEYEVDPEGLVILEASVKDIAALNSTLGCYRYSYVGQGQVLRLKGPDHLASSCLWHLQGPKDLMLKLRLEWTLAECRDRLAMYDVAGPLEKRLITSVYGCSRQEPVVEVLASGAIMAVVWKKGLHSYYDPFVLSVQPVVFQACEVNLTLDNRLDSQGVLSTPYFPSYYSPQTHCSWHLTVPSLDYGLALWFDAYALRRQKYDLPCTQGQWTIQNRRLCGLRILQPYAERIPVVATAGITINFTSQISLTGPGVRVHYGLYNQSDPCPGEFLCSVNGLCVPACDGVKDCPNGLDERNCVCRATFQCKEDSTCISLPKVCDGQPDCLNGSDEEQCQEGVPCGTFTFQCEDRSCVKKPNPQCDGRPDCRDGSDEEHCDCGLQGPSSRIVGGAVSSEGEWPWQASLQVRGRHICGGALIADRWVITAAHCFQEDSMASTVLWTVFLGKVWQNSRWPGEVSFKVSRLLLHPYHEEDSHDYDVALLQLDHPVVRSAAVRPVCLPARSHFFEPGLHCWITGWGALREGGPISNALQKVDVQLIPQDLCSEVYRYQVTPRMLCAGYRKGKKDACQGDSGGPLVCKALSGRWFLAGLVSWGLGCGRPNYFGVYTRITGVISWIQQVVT

[2] = target: T2, full-length mouse TMPRSS6 with a C-terminal triple myc tag on HEK293.hHJV cells (HEK293.hHJV/3xMyc.mTMPRSS6) (mouse, UniProt Q9DBI0 1-811)
T2 sequence: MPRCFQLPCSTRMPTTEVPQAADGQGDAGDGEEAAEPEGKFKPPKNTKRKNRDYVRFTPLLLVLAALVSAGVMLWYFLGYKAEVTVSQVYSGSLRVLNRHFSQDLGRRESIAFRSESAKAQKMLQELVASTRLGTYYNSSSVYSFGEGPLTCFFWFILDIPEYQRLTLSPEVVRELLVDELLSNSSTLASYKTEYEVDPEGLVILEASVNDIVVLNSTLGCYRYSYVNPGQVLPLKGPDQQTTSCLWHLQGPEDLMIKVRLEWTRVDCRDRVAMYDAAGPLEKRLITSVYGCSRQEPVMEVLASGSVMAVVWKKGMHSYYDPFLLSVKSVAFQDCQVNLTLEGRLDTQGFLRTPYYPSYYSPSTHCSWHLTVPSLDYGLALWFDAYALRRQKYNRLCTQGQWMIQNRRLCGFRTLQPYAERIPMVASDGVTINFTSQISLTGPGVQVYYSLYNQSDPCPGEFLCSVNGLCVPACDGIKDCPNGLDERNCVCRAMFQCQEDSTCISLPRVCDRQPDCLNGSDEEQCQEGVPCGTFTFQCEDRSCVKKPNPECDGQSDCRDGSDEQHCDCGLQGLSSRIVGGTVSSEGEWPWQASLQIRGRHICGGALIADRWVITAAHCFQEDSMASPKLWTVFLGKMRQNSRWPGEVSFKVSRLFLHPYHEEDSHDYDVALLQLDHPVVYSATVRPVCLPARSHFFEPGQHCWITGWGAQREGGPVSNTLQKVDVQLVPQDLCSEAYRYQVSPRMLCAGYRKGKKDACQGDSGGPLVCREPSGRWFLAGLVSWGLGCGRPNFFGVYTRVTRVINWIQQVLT

[3] = target: T3, full length human TMPRSS6 with a C-terminal triple myc tag on HEK293.hHJV cells (HEK293.hHJV/3xMyc.hTMPRSS6) (human, UniProt Q8IU80 1-811)
T3 sequence: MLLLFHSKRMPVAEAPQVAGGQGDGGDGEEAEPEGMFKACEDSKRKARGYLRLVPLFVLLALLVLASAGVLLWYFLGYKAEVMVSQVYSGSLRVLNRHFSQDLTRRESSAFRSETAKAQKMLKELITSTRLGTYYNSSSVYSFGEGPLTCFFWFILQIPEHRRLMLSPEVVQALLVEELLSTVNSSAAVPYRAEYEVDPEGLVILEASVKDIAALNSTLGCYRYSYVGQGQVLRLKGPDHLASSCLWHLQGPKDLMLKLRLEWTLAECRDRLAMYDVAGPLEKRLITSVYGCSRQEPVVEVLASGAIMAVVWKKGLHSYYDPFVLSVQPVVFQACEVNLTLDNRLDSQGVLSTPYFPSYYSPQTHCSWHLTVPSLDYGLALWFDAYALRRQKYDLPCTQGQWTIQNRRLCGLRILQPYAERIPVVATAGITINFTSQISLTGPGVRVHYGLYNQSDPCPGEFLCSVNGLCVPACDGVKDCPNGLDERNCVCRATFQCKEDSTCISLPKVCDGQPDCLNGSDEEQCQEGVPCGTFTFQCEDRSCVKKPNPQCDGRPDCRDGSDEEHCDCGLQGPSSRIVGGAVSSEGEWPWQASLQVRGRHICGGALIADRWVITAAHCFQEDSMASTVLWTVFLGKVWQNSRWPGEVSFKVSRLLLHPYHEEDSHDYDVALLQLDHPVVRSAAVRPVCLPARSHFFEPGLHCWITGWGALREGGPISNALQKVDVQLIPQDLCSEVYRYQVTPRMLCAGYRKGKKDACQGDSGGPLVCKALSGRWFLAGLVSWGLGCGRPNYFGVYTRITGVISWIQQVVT

Binder	% inhibition, HEK293 bioassay, overnight pre-incubation 37 C [1]	IC50, HEK293 bioassay, overnight pre-incubation 37 C [1]	IC50, soluble hHJV release (ELISA) [2]	Inhibition (%) of soluble hHJV release (ELISA) [2]	IC50, soluble hHJV release (ELISA) [3]	Inhibition (%) of soluble hHJV release (ELISA) [3]
B1	89%	2.1 nM	0.0826 nM	98.5%	0.102 nM	> 99%
B2	87%	1.7 nM	–	46.4%	0.127 nM	> 99%
B3	86%	2.6 nM	–	11.8%	0.154 nM	> 99%
B4	88%	1.2 nM	–	< 1%	0.0712 nM	> 99%
B5	90%	1.4 nM	–	10.2%	0.0774 nM	89.9%
B6	90%	1.1 nM	0.274 nM	42%	0.149 nM	> 99%
